# Laboratory results published in PMC3525768.
# T1: AgrAC (AgrA C-terminal LytTR domain) (Staphylococcus aureus, UniProt P0A0I7 137-238)
# T1 sequence: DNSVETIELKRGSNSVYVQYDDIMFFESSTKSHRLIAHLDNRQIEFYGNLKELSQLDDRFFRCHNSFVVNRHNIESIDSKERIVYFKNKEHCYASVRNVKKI
# Target: T1, AgrAC (AgrA C-terminal LytTR domain)
# Assay: EMSA
binder,measurement,value
19-bp AgrA target DNA duplex (dsDNA) DNA 1: ATTTAACAGTTAAGTATTT DNA 2: AAATACTTAACTGTTAAAT,binding result,binds
